Assay results from patent US20090081197A1, “Methods for Selection of Melanocortin Receptor-Specific Agents for Treatment of Obesity” (Palatin Technologies, Inc., priority 2007, published 2009).

Tests used:
[1] = target: human melanocortin 4 receptor (human) (UniProt P32245); experiment: cell-based or functional assay
[2] = target: MC1-R of B-16 mouse melanoma cells (mouse) (UniProt Q01727); experiment: radioligand competition, [I125]-NDP-α-MSH, B-16 membranes
[3] = target: human melanocortin 3 receptor (human) (UniProt P41968); experiment: radioligand competition, [I125]-NDP-α-MSH, hMC3-R membranes
Sequence of human melanocortin 3 receptor (human) (P41968 whole entry): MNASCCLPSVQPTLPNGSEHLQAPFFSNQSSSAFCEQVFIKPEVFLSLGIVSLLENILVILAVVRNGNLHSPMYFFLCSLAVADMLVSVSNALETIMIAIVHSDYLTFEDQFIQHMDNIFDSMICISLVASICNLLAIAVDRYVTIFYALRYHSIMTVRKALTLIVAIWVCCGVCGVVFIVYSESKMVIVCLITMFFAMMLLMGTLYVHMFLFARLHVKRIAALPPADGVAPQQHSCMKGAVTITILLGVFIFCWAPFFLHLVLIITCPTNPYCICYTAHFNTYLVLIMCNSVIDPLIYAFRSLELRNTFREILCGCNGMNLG

[4] = target: human melanocortin 4 receptor (human) (UniProt P32245); experiment: radioligand competition, [I125]-NDP-α-MSH, hMC4-R membranes
[5] = target: human melanocortin 5 receptor (human) (UniProt P33032); experiment: radioligand competition, [I125]-NDP-α-MSH, hMC5-R membranes
Sequence of human melanocortin 5 receptor (human) (P33032 whole entry): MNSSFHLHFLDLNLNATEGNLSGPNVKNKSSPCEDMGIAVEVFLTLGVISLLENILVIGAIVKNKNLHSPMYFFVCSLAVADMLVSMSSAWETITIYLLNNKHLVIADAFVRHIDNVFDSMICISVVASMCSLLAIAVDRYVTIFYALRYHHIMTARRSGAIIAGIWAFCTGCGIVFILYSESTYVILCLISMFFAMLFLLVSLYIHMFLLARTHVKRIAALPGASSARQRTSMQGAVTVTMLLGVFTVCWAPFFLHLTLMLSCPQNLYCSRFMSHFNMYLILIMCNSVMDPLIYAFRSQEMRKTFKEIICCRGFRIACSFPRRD

human MC1-R (human) = human MC1-R (human) (UniProt Q01726); experiment: radioligand competition, NDP-α-MSH, human MC1-R, normal system
Sequence of human MC1-R (human) (Q01726 whole entry): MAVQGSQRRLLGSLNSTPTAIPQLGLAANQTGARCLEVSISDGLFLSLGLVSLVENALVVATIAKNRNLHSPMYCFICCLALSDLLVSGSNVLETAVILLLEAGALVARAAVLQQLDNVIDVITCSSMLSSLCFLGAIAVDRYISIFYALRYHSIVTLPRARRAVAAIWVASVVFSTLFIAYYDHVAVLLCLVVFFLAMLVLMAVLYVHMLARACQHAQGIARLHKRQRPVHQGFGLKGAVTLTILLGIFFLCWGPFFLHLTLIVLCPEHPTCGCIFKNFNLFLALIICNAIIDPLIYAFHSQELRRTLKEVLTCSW

[6] = target: MC1-R of B-16 mouse melanoma cells (mouse) (UniProt Q01727); experiment: radioligand competition, [I125]-NDP-α-MSH, B-16 membranes, 1 µM compound
[7] = target: human melanocortin 3 receptor (human) (UniProt P41968); experiment: radioligand competition, [I125]-NDP-α-MSH, hMC3-R membranes, 1 µM compound
[8] = target: human melanocortin 4 receptor (human) (UniProt P32245); experiment: radioligand competition, [I125]-NDP-α-MSH, hMC4-R membranes, 1 µM compound
[9] = target: human melanocortin 5 receptor (human) (UniProt P33032); experiment: radioligand competition, [I125]-NDP-α-MSH, hMC5-R membranes, 1 µM compound

Sequence of human melanocortin 4 receptor (human) (P32245 whole entry): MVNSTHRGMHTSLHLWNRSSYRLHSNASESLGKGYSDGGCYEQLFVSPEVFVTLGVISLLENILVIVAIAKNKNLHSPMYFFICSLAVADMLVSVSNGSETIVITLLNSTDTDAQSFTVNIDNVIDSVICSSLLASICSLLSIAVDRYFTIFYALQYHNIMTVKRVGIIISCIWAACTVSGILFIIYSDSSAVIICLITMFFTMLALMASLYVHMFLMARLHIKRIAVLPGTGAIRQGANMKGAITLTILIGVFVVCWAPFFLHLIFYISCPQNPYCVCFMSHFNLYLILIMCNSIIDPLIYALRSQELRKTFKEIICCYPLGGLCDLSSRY
Sequence of MC1-R of B-16 mouse melanoma cells (mouse) (Q01727 whole entry): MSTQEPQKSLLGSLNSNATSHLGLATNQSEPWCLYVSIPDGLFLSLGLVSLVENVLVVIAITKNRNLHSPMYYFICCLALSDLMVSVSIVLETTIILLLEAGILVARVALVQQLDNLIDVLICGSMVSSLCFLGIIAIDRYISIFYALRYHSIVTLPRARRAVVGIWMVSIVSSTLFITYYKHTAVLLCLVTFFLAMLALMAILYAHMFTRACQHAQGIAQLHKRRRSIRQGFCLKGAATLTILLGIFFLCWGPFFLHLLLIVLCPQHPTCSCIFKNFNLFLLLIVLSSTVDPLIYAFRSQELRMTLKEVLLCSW

pA2 (antagonism of NDP-α-MSH-stimulated cAMP, Schild analysis), normal system [1]: 8.1
Ki [2]: 200 pM
Ki [3]: 300 pM
Ki [4]: 20 pM
Ki [5]: 200 pM
Ki (human MC1-R (human)): 250 pM
Inhibition at 1 µM (NDP-α-MSH) [6]: 102%
Inhibition at 1 µM (NDP-α-MSH) [7]: 98%
Inhibition at 1 µM (NDP-α-MSH) [8]: 100%
Inhibition at 1 µM (NDP-α-MSH) [9]: 100%
B1: Ac-Nle-cyclo(Asp-His-D-Nal 2-Arg-Nal 2-Lys)-OH (peptide)
peptide: XDHXRXK
modifications: N-terminal acetyl; Nle at 1 (X); D-Nal 2 at 4 (X); Nal 2 at 6 (X); cyclo(Asp 2 to Lys 7); free C-terminal acid
